The source of these data is US20070042946A1 (NATIONAL RESEARCH COUNCIL OF CANADA, published 2007).

B1: FN22 (peptide)
peptide: FNPRPQSHNDGDFEEIPEEYLQ
notes: Tested as recombinant peptide (FN22^(a), released by CNBr from the MFH fusion) and as synthetic peptide; also called FN22^(a) (recombinant preparation)
B2: FD22 (peptide)
peptide: FDPRPQSHNDGDFEEIPEEYLQ
notes: Tested as recombinant peptide (FD22^(a), released by CNBr from the MFH fusion) and as synthetic peptide; also called FD22^(a) (recombinant preparation)

For one test, the target named is T1, human α-thrombin (human, UniProt P00734 328-622). As to the kind of experiment: cell-based or functional assay.
Take FEPRPQDHNDGDFEEIPEEYLQ [FE22-D]: the “IC50 (DCT), clotting assay, 37° C.” value is above 125 nM.

In the case of GSAVPRPQIHNDGDFEEIPEEYLQ [GS-AV22-I], the “IC50 (DCT), clotting assay, 37° C.” value stood at 33 nM.

On to GSIQPRPQIHNDGDFEEIPEEYLQ [GS-IQ22-I], for which the “IC50 (DCT), clotting assay, 37° C.” value stood at 10 nM.

Regarding FEPRPQSHNDGDFEEIPEEYLQ [FE22], the “IC50 (DCT), clotting assay, 37° C.” value turned out to be 80 nM.

Turning to FDPRPQKHNDGDFEEIPEEYLQ [FD22-K], the “IC50 (DCT), clotting assay, 37° C.” value came out at 60 nM.

Turning to FDPRPQHHNDGDFEEIPEEYLQ [FD22-H], the “IC50 (DCT), clotting assay, 37° C.” value stood at 70 nM.

As to B1, the “IC50 (DCT), clotting assay, 37° C.; recombinant peptide FN22^(a)” value was 150 nM and the “IC50 (DCT), clotting assay, 37° C.; synthetic peptide” value was found to be 67 nM.

For B2, the “IC50 (DCT), clotting assay, 37° C.; recombinant peptide FD22^(a)” value was determined as 50 nM and the “IC50 (DCT), clotting assay, 37° C.; synthetic peptide” value was 45 nM.

On to FNPRPQIHNDGDFEEIPEEYLQ [FN22-I], for which the “IC50 (DCT), clotting assay, 37° C.” value was found to be 45 nM.

As for FDPRPQRHNDGDFEEIPEEYLQ (Synthetic) [FD22-R], the “IC50 (DCT), clotting assay, 37° C.” value worked out at 32 nM.

As to FQPRPQMHNDGDFEEIPEEYLQ [FQ22-M], the “IC50 (DCT), clotting assay, 37° C.” value worked out at 11 nM.

Regarding WDPRPQRHNDGDFEEIPEEYLQ (Synthetic) [WD22-R], the “IC50 (DCT), clotting assay, 37° C.” value was 22 nM.

Regarding LDPRPQSHNDGDFEEIPEEYLQ (Synthetic) [LD22], the “IC50 (DCT), clotting assay, 37° C.” value worked out at 228 nM.

With IQPRPQIHNDGDFEEIPEEYLQ [IQ22-I], the “IC50 (DCT), clotting assay, 37° C.” value came to 39 nM.

For FDPRPQDHNDGDFEEIPEEYLQ (Synthetic) [FD22-D], the “IC50 (DCT), clotting assay, 37° C.” value came to 53 nM.

As to WDPRPQSRNDGDYEPIPEEYLQ [WD22-SR-YP], the “IC50 (DCT), clotting assay, 37° C.” value turned out to be 32 nM.

Take FHPRPQSHNDGDFEEIPEEYLQ [FH22]: the “IC50 (DCT), clotting assay, 37° C.” value was above 150 nM.

For the molecule WDPRPQSRNDGDFEPIPEEYLQ [WD22-SR-P], the “IC50 (DCT), clotting assay, 37° C.” value was found to be 53 nM.

A further test concerns the target bovine α-thrombin (bovine, UniProt P00735 318-625). Nature of the test: cell-based or functional assay.
Turning to B1, the “IC50, clotting assay; recombinant peptide” value was 289 nM.

The target of a further test is T1, human α-thrombin. Nature of the test: amidolytic assay, Tos-Gly-Pro-Arg-pNA hydrolysis by human α-thrombin, 25° C. The method, then:
Kinetics of thrombin-catalyzed hydrolysis of the chromogenic substrate Tos-Gly-Pro-Arg-p-nitroanilide were followed by absorbance at 405 nm on a Spectramax plate reader thermostated at either 25° C. or 37° C. according to the method of Maragnore et al (supra). The concentrations of Tos-Gly-Pro-Arg-p-nitroanilide ranged from 2 to 400 μM. […] The KM and Vₘₐₓ values were calculated accordingly and kcat values were determined by dividing Vₘₐₓ by the enzyme (thrombin) concentration. The inhibition assays were performed in the clotting buffer with a certain fixed concentration of α-thrombin (˜0.3 nM) such that linear progress curves were achieved within at least 15 min in the absence of the inhibition. The total volume of the solution was fixed at 200 μl. Reactions were initiated by addition of the chromogenic substrate to the wells containing thrombin and a certain concentration of the peptide inhibitors premixed for less than 2 min. Alternatively, the substrate was first mixed with the peptide inhibitor and the total volume was adjusted to 120 μL using the clotting buffer. Eighty microliters of human α-thrombin in the clotting buffer (˜0.3 nM final concentration) was added to initiate the reaction. The concentration of the peptides ranged from 0.5 nM to 10 μM. Kinetics data from initial rate experiments were used to construct Lineweaver-Burke plot; i.e. the relationship of (substrate concentration)⁻¹ versus (initial velocity)⁻¹ which. were analysed by linear regression with MicroCal Origin 4.1 program (MicroCal, MD) or using the GraphPad Prism software. The Kᵢ values of the inhibitors were determined using the equation: Kᵢ=[I]/{(SL₀/SL₁)−1}, where [0098] [I] is the inhibitor concentration, [0099] SL₀ is the slope of the reaction in the absence of inhibitors, and [0100] SL₁ is the slope of the reaction in the presence of the inhibitor. Alternatively, Dixon plots of inverse velocity versus the inhibitor concentrations were generated with the Sigmaplot™ software. Every Dixon plot contained an array of data corresponding to different substrate concentrations and the Kᵢ values were determined from the intersections. Following Peptide Cleavage by HPLC
One may read the Ki as the equilibrium dissociation constant of an inhibitor or competing ligand from its target. Regarding GSAVPRPQIHNDGDFEEIPEEYLQ [GS-AV22-I], the inhibition constant (Ki) was determined as 41 nM.

GSIQPRPQIHNDGDFEEIPEEYLQ [GS-IQ22-I]: the Ki was above 400 nM.

Regarding FNPRPQIHNDGDFEEIPEEYLQ [FN22-I], the Ki stood at 360 nM.

As for FDPRPQRHNDGDFEEIPEEYLQ (Synthetic) [FD22-R], the Ki was determined as 45 nM.

As to FQPRPQMHNDGDFEEIPEEYLQ [FQ22-M], the Ki was 64 nM.

For the molecule WDPRPQRHNDGDFEEIPEEYLQ (Synthetic) [WD22-R], the Ki turned out to be 17 nM.

With LDPRPQSHNDGDFEEIPEEYLQ (Synthetic) [LD22], the inhibitory constant (Ki) amounted to 260 nM.

With IQPRPQIHNDGDFEEIPEEYLQ [IQ22-I], the Ki amounted to 49 nM.

Consider FDPRPQDHNDGDFEEIPEEYLQ (Synthetic) [FD22-D], for which the Ki was 58 nM.

A further test concerns the target T1, human α-thrombin. Nature of the test: amidolytic assay, Tos-Gly-Pro-Arg-pNA hydrolysis by human α-thrombin, 25° C.; synthetic peptide. The method, then: (§1) Kinetics of thrombin-catalyzed hydrolysis of the chromogenic substrate Tos-Gly-Pro-Arg-p-nitroanilide were followed by absorbance at 405 nm on a Spectramax plate reader thermostated at either 25° C. or 37° C. according to the method of Maragnore et al (supra). The concentrations of Tos-Gly-Pro-Arg-p-nitroanilide ranged from 2 to 400 μM. […] The KM and Vₘₐₓ values were calculated accordingly and kcat values were determined by dividing Vₘₐₓ by the enzyme (thrombin) concentration. The inhibition assays were performed in the clotting buffer with a certain fixed concentration of α-thrombin (˜0.3 nM) such that linear progress curves were achieved within at least 15 min in the absence of the inhibition. The total volume of the solution was fixed at 200 μl. […] Kinetics data from initial rate experiments were used to construct Lineweaver-Burke plot; i.e. the relationship of (substrate concentration)⁻¹ versus (initial velocity)⁻¹ which. were analysed by linear regression with MicroCal Origin 4.1 program (MicroCal, MD) or using the GraphPad Prism software. The Kᵢ values of the inhibitors were determined using the equation: Kᵢ=[I]/{(SL₀/SL₁)−1}, where [0098] […] Every Dixon plot contained an array of data corresponding to different substrate concentrations and the Kᵢ values were determined from the intersections. […]
Consider B1, for which the inhibitory constant (Ki) was found to be 80 nM.

In the case of B2, the inhibition constant (Ki) worked out at 48 nM.

The next test has as its target T1, human α-thrombin. As to the kind of experiment: amidolytic assay, Tos-Gly-Pro-Arg-pNA hydrolysis by human α-thrombin, 25° C.; recombinant peptide. The method, then: as §1
Turning to B1, the inhibition constant (Ki) is 100 nM.

B2: the inhibition constant Ki was determined as 55 nM.
